Measured values from paper PMC11806106.

Columns and labels:
[1] = molecular target: MOR BRET sensor (G267-MOR sensor with mTurq2 replaced by nLuc2) (rat) (UniProt P33535)
[2] = molecular target: MOR-nLuc (rat µ opioid receptor, wild type, with C-terminal nLuc) (rat) (UniProt P33535)
[3] = molecular target: rat µ opioid receptor (MOR-wt) (rat) (UniProt P33535)

Question: How did the EC50 of the agonist-induced change of the BRET ratio of the MOR BRET conformation sensor [1] turn out when DAMGO (peptide) was run?
Answer: 445 nM

Question: And the EC50 of agonist-induced arrestin3 interaction with MOR-nLuc (BRET, with GRK2) [2]?
Answer: 282 nM

Question: And the EC50 of Go activation (BRET-based activity sensor Go1-case) [3]?
Answer: 2.92 nM
